In the Immune Epitope Database (IEDB):

Key:
HLA-B*18:01 [1] = experiment: IEDB peptide-MHC binding, purified MHC/competitive/radioactivity; filed as Kd, often an IC50 or EC50 that approximates it; ≥ and ≤ were set here for values at or beyond the usual limits of such assays
HLA-B*40:01 [2] = experiment: as above
HLA-B*40:02 = experiment: as above
HLA-B*44:02 = experiment: as above
HLA-B*44:03 = experiment: as above
HLA-B*45:01 = experiment: as above
HLA-B*15:03 = experiment: as above; settings: source organism: Vaccinia virus WR
HLA-A*32:01 = experiment: as above; settings: source organism: Vaccinia virus WR
HLA-A*02:03 = experiment: IEDB peptide-MHC binding, purified MHC/direct/fluorescence; filed as Kd, often an IC50 or EC50 that approximates it; ≥ and ≤ were set here for values at or beyond the usual limits of such assays
HLA-A*02:11 = experiment: as above
HLA-A*02:12 = experiment: as above
HLA-A*69:01 = experiment: as above; settings: source organism: Mycobacterium tuberculosis
HLA-A*03:01 [3] = experiment: IEDB peptide-MHC binding, purified MHC/competitive/fluorescence; filed as Kd, often an IC50 or EC50 that approximates it; ≥ and ≤ were set here for values at or beyond the usual limits of such assays; settings: source organism: Yersinia pestis Antiqua
HLA-B*15:01 [4] = experiment: as above
HLA-A*01:01 = experiment: IEDB peptide-MHC binding, purified MHC/direct/fluorescence; filed as Kd, often an IC50 or EC50 that approximates it; ≥ and ≤ were set here for values at or beyond the usual limits of such assays; settings: source organism: Influenza A virus (A/Duck/Shantou/1881/00(H9N2))
HLA-A*02:01 = experiment: as above; settings: source organism: Influenza A virus (A/Duck/Shantou/1881/00(H9N2))
HLA-A*02:19 = experiment: as above; settings: source organism: Influenza A virus(A/swine/Henan/8/2004(H9N2))
HLA-A*03:01 [5] = experiment: as above
HLA-A*11:01 = experiment: as above; settings: source organism: Influenza A virus (A/Duck/Shantou/1881/00(H9N2))
HLA-A*24:03 = experiment: as above; settings: source organism: Influenza A virus (A/Duck/Shantou/1881/00(H9N2))
HLA-A*31:01 = experiment: as above; settings: source organism: Influenza A virus (A/Duck/Shantou/1881/00(H9N2))
HLA-B*07:02 = experiment: as above; settings: source organism: Influenza A virus (A/Duck/Shantou/1881/00(H9N2))
HLA-B*15:01 [6] = experiment: as above; settings: source organism: Influenza A virus (A/Duck/Shantou/1881/00(H9N2))
HLA-B*27:05 = experiment: as above; settings: source organism: Influenza A virus (A/Duck/Shantou/1881/00(H9N2))
HLA-B*40:01 [7] = experiment: as above; settings: source organism: Influenza A virus (A/Duck/Shantou/1881/00(H9N2))
HLA-B*58:01 = experiment: as above
HLA-A*26:01 = experiment: IEDB peptide-MHC binding, purified MHC/competitive/fluorescence; filed as Kd, often an IC50 or EC50 that approximates it; ≥ and ≤ were set here for values at or beyond the usual limits of such assays; settings: source organism: Choclo virus
HLA-B*15:17 = experiment: as above; settings: source organism: Choclo virus
HLA-B*18:01 [8] = experiment: as above; settings: source organism: Choclo virus
HLA-B*27:03 = experiment: as above; settings: source organism: Choclo virus
HLA-B*39:01 = experiment: as above; settings: source organism: Choclo virus
HLA-B*46:01 = experiment: as above; settings: source organism: Choclo virus
HLA-B*51:01 = experiment: as above; settings: source organism: Choclo virus
HLA-B*57:01 = experiment: as above; settings: source organism: Choclo virus
[9] = source organism: SARS coronavirus Tor2
[10] = source organism: Mammarenavirus lassaense
[11] = source organism: Mammarenavirus choriomeningitidis
[12] = source organism: Mammarenavirus brazilense
[13] = source organism: Mycobacterium tuberculosis str. Haarlem
[14] = source organism: Influenza A virus(A/swine/Henan/8/2004(H9N2))
[15] = source organism: Influenza A virus (A/Duck/Shantou/1881/00(H9N2))
[16] = source organism: Mammarenavirus machupoense
[17] = source organism: Mammarenavirus juninense
[18] = source organism: Lymphocytic choriomeningitis virus (strain Armstrong)

VEAVMYMGT
Kd (HLA-B*18:01 [1]; [9]): 2470 nM
Kd (HLA-B*40:01 [2]; [9]): ≥ 31300 nM
Kd (HLA-B*40:02; [9]): 1320 nM
Kd (HLA-B*44:02; [9]): ≥ 21900 nM
Kd (HLA-B*44:03; [9]): 6510 nM
Kd (HLA-B*45:01; [9]): 616 nM

GDVELLGTT
Kd (HLA-B*18:01 [1]; [10]): ≥ 77500 nM
Kd (HLA-B*40:01 [2]; [10]): ≥ 33700 nM
Kd (HLA-B*40:02; [10]): 5920 nM
Kd (HLA-B*44:02; [10]): ≥ 41800 nM
Kd (HLA-B*44:03; [10]): ≥ 52100 nM
Kd (HLA-B*45:01; [10]): 16600 nM

QELYSPLFLI
Kd (HLA-B*18:01 [1]; [9]): 4910 nM
Kd (HLA-B*40:01 [2]; [9]): 690 nM
Kd (HLA-B*40:02; [9]): 10.7 nM
Kd (HLA-B*44:02; [9]): 7.01 nM
Kd (HLA-B*44:03; [9]): 7.36 nM
Kd (HLA-B*45:01; [9]): 45.6 nM

IMVSEHFSL
Kd (HLA-B*15:03): 5.51 nM

ADYLSCSHF
Kd (HLA-B*18:01 [1]; [11]): ≥ 77500 nM
Kd (HLA-B*40:01 [2]; [11]): ≥ 47000 nM
Kd (HLA-B*40:02; [11]): 254 nM
Kd (HLA-B*44:02; [11]): 319 nM
Kd (HLA-B*44:03; [11]): 2740 nM
Kd (HLA-B*45:01; [11]): 17700 nM

TKFTDFQDF
Kd (HLA-B*15:03): 2.22 nM

GERSRCYSL
Kd (HLA-B*18:01 [1]; [12]): ≥ 77500 nM
Kd (HLA-B*40:01 [2]; [12]): 3380 nM
Kd (HLA-B*40:02; [12]): 51.2 nM
Kd (HLA-B*44:02; [12]): ≥ 77900 nM
Kd (HLA-B*44:03; [12]): ≥ 78100 nM
Kd (HLA-B*45:01; [12]): ≥ 77700 nM

KPNSFTFSF
Kd (HLA-A*32:01): 13900 nM
Kd (HLA-B*15:03): 254 nM

FEKMVSLLSV
Kd (HLA-B*18:01 [1]; [9]): 145 nM
Kd (HLA-B*40:01 [2]; [9]): 25.2 nM
Kd (HLA-B*40:02; [9]): 23.7 nM
Kd (HLA-B*44:02; [9]): 3280 nM
Kd (HLA-B*44:03; [9]): 6180 nM
Kd (HLA-B*45:01; [9]): 784 nM

LLYDGSFAV
Kd (HLA-A*02:03; [13]): ≤ 1 nM
Kd (HLA-A*02:11; [13]): ≤ 1 nM
Kd (HLA-A*02:12; [13]): 2 nM
Kd (HLA-A*69:01): 4.3 nM

SEAPNAKEEI
Kd (HLA-B*18:01 [1]; [9]): ≥ 27200 nM
Kd (HLA-B*40:01 [2]; [9]): 1180 nM
Kd (HLA-B*40:02; [9]): 3350 nM
Kd (HLA-B*44:02; [9]): 105 nM
Kd (HLA-B*44:03; [9]): 145 nM
Kd (HLA-B*45:01; [9]): 319 nM

YKVFTDISM
Kd (HLA-B*15:03): 2.18 nM

AMLDRILHH
Kd (HLA-A*03:01 [3]): 9.5 nM
Kd (HLA-B*15:01 [4]; source organism: Yersinia pestis Antiqua): 6160 nM

SGNRGSTSF
Kd (HLA-B*15:03): 25.2 nM

REGVFVFNGT
Kd (HLA-B*18:01 [1]; [9]): ≥ 70500 nM
Kd (HLA-B*40:01 [2]; [9]): 677 nM
Kd (HLA-B*40:02; [9]): 274 nM
Kd (HLA-B*44:02; [9]): 1600 nM
Kd (HLA-B*44:03; [9]): 306 nM
Kd (HLA-B*45:01; [9]): 222 nM

SLPPNFSSL
Kd (HLA-A*01:01): ≥ 20000 nM
Kd (HLA-A*02:01): 9.3 nM
Kd (HLA-A*02:03; [14]): 3 nM
Kd (HLA-A*02:11; [14]): 24 nM
Kd (HLA-A*02:12; [14]): 5 nM
Kd (HLA-A*02:19): 124 nM
Kd (HLA-A*03:01 [5]; [15]): ≥ 20000 nM
Kd (HLA-A*11:01): ≥ 20000 nM
Kd (HLA-A*24:03): 7.5 nM
Kd (HLA-A*31:01): ≥ 20000 nM
Kd (HLA-B*07:02): 1650 nM
Kd (HLA-B*15:01 [6]): 115 nM
Kd (HLA-B*27:05): ≥ 20000 nM
Kd (HLA-B*40:01 [7]): ≥ 20000 nM
Kd (HLA-B*58:01; [15]): ≥ 20000 nM

ADMSKLLNL
Kd (HLA-B*18:01 [1]; [16]): ≥ 77500 nM
Kd (HLA-B*40:01 [2]; [16]): 6250 nM
Kd (HLA-B*40:02; [16]): 339 nM
Kd (HLA-B*44:02; [16]): 5440 nM
Kd (HLA-B*44:03; [16]): ≥ 51400 nM
Kd (HLA-B*45:01; [16]): ≥ 77700 nM

YDFNKLTAL
Kd (HLA-B*18:01 [1]; [10]): 6780 nM
Kd (HLA-B*40:01 [2]; [10]): 5340 nM
Kd (HLA-B*40:02; [10]): 19.8 nM
Kd (HLA-B*44:02; [10]): 2270 nM
Kd (HLA-B*44:03; [10]): 9170 nM
Kd (HLA-B*45:01; [10]): ≥ 77700 nM

TKTLDISSF
Kd (HLA-B*15:03): 54.5 nM

SEILRTLGF
Kd (HLA-B*18:01 [1]; [17]): 115 nM
Kd (HLA-B*40:01 [2]; [17]): 4180 nM
Kd (HLA-B*40:02; [17]): 56.1 nM
Kd (HLA-B*44:02; [17]): 18.7 nM
Kd (HLA-B*44:03; [17]): 37.3 nM
Kd (HLA-B*45:01; [17]): 7590 nM

VMGVIGFGF
Kd (HLA-A*02:12; source organism: Choclo virus): ≥ 20000 nM
Kd (HLA-A*03:01 [5]; source organism: Choclo virus): ≥ 20000 nM
Kd (HLA-B*58:01; source organism: Orthohantavirus andesense): 2190 nM
Kd (HLA-A*26:01): ≥ 20000 nM
Kd (HLA-B*15:01 [4]; source organism: Choclo virus): ≥ 20000 nM
Kd (HLA-B*15:17): ≥ 20000 nM
Kd (HLA-B*18:01 [8]): ≥ 20000 nM
Kd (HLA-B*27:03): ≥ 20000 nM
Kd (HLA-B*39:01): ≥ 20000 nM
Kd (HLA-B*46:01): ≥ 20000 nM
Kd (HLA-B*51:01): ≥ 20000 nM
Kd (HLA-B*57:01): ≥ 20000 nM

FELTSMKYFV
Kd (HLA-B*18:01 [1]; [9]): ≥ 37900 nM
Kd (HLA-B*40:01 [2]; [9]): 2140 nM
Kd (HLA-B*40:02; [9]): 24.2 nM
Kd (HLA-B*44:02; [9]): 7160 nM
Kd (HLA-B*44:03; [9]): 4470 nM
Kd (HLA-B*45:01; [9]): 7780 nM

KMAADRGAF
Kd (HLA-B*15:03): 2.5 nM

RGSWATSSF
Kd (HLA-B*15:03): 11.1 nM

AEALGPFQS
Kd (HLA-B*18:01 [1]; [18]): ≥ 77500 nM
Kd (HLA-B*40:01 [2]; [18]): ≥ 32100 nM
Kd (HLA-B*40:02; [18]): 4960 nM
Kd (HLA-B*44:02; [18]): 1320 nM
Kd (HLA-B*44:03; [18]): 6970 nM
Kd (HLA-B*45:01; [18]): 132 nM

FESYVRPFVA
Kd (HLA-B*18:01 [1]; [10]): 982 nM
Kd (HLA-B*40:01 [2]; [10]): 5420 nM
Kd (HLA-B*40:02; [10]): 19.9 nM
Kd (HLA-B*44:02; [10]): ≥ 70200 nM
Kd (HLA-B*44:03; [10]): ≥ 32000 nM
Kd (HLA-B*45:01; [10]): 151 nM

FDAAASGGL
Kd (HLA-B*18:01 [1]; [10]): ≥ 65200 nM
Kd (HLA-B*40:01 [2]; [10]): ≥ 28500 nM
Kd (HLA-B*40:02; [10]): 3020 nM
Kd (HLA-B*44:02; [10]): ≥ 77900 nM
Kd (HLA-B*44:03; [10]): ≥ 78100 nM
Kd (HLA-B*45:01; [10]): ≥ 32200 nM

SQQNSDSIF
Kd (HLA-B*15:03): 1.87 nM

FEEHLAPFMS
Kd (HLA-B*18:01 [1]; [12]): 3380 nM
Kd (HLA-B*40:01 [2]; [12]): 2360 nM
Kd (HLA-B*40:02; [12]): 2570 nM
Kd (HLA-B*44:02; [12]): ≥ 47400 nM
Kd (HLA-B*44:03; [12]): ≥ 70100 nM
Kd (HLA-B*45:01; [12]): 8780 nM

SEAQMSIQL
Kd (HLA-B*18:01 [1]; [10]): 1100 nM
Kd (HLA-B*40:01 [2]; [10]): 11600 nM
Kd (HLA-B*40:02; [10]): 15.3 nM
Kd (HLA-B*44:02; [10]): 161 nM
Kd (HLA-B*44:03; [10]): 99.3 nM
Kd (HLA-B*45:01; [10]): 542 nM
